Experimental data published in patent publication US20120122239A1.

What was measured:
[1] = biological target: human pro B-type natriuretic peptide (HyTest, Turku, Finland; Catalog No. 8PRO8) (human); experiment: sandwich CMIA, capture 15F11, analyte 43.3 pM
[2] = biological target: glycosylated human proBNP (HyTest, Turku, Finland; Catalog No. 8GOB2) (human); experiment: sandwich CMIA, capture 15C4, analyte 0.0 pM (blank)
[3] = biological target: human NT-pro B-type natriuretic peptide (HyTest, Turku, Finland; Catalog No. 8NT1) (human); experiment: as above
[4] = biological target: human pro B-type natriuretic peptide (HyTest, Turku, Finland; Catalog No. 8PRO8) (human); experiment: as above
[5] = biological target: glycosylated human proBNP (HyTest, Turku, Finland; Catalog No. 8GOB2) (human); experiment: sandwich CMIA, capture 15C4, 86.6 pM, against human NT-proBNP
[6] = biological target: human pro B-type natriuretic peptide (HyTest, Turku, Finland; Catalog No. 8PRO8) (human); experiment: as above
[7] = biological target: glycosylated human proBNP (HyTest, Turku, Finland; Catalog No. 8GOB2) (human); experiment: sandwich CMIA, capture 15C4, 288.7 pM, against human NT-proBNP
[8] = biological target: human pro B-type natriuretic peptide (HyTest, Turku, Finland; Catalog No. 8PRO8) (human); experiment: as above
[9] = biological target: glycosylated human proBNP (HyTest, Turku, Finland; Catalog No. 8GOB2) (human); experiment: sandwich CMIA, capture 15F11, 288.7 pM, against human NT-proBNP
[10] = biological target: human pro B-type natriuretic peptide (HyTest, Turku, Finland; Catalog No. 8PRO8) (human); experiment: as above
[11] = biological target: glycosylated human proBNP (HyTest, Turku, Finland; Catalog No. 8GOB2) (human); experiment: sandwich CMIA, capture 15F11, 577.4 pM, against human NT-proBNP
[12] = biological target: human pro B-type natriuretic peptide (HyTest, Turku, Finland; Catalog No. 8PRO8) (human); experiment: as above

glycosylated human proBNP (HyTest, Turku, Finland; Catalog No. 8GOB2) (human), sequence (chain, as listed by the source): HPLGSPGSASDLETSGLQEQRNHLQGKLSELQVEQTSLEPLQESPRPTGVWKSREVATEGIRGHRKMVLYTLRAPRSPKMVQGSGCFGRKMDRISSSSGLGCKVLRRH
human NT-pro B-type natriuretic peptide (HyTest, Turku, Finland; Catalog No. 8NT1) (human), sequence (chain, as listed by the source): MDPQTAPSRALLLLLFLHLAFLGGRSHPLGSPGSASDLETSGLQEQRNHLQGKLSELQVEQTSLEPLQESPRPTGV

Question: For “anti-human NT-proBNP/anti-human proBNP labeled monoclonal antibody 29D12 (HyTest, Turku, Finland)”, which Analyte rlus [1] is on record?
Answer: 1570 rlus

Question: And the Analyte rlus [2]?
Answer: 892 rlus

Question: What about the Analyte rlus [3] of the same substance?
Answer: 892 rlus

Question: And the Analyte rlus [4]?
Answer: 892 rlus

Question: What about the % Cross-reactivity [5] of the same substance?
Answer: 0.7%

Question: And the % Cross-reactivity [6]?
Answer: 16%

Question: What about the % Cross-reactivity [7] of the same substance?
Answer: 0.4%

Question: What about the % Cross-reactivity [8] of the same substance?
Answer: 13.7%

Question: And the % Cross-reactivity [9]?
Answer: 113%

Question: What about the % Cross-reactivity [10] of the same substance?
Answer: 38.3%

Question: And the % Cross-reactivity [11]?
Answer: 115%

Question: What about the % Cross-reactivity [12] of the same substance?
Answer: 31.8%
